Target: T1, 乙型肝炎表面抗原(HBsAg) (Hepatitis B virus)
T1 chain: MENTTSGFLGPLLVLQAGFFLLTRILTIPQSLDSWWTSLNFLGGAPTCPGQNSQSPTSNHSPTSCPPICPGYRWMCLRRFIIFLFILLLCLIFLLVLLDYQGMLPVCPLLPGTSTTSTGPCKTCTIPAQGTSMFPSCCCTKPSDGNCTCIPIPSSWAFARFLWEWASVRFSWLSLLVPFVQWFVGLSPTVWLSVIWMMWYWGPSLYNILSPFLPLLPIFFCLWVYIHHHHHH
Assay: ELISA affinity determination on HBsAg

B1: C4D2-BsAb (bispecific antibody, human IgG1, kappa)
VH: not shown
VL: DIVMTQSPLSLSVTPGEPASISCRSSQSLLHRSGNNYLDWYLQKPGHSPQLLIYVGSNRASGVPDRFSGSGSGTEYTLKISRVEAEDVGVYYCMQALQTPRTFGQGTKLEIKRTVAAPSVFIFPPELVMTQSPSSLSASVGDRVTITCRASQGIYNSIAWYQQKPGKAPKLLLYSTSTLLSGVPSRFSGSGSGTDYTLTITNLQPEDFATYYCQQYFVTPETFGQGTKVEIKRTVAAPSVFIFPPSDEQLKSGTASVVCLLNNFYPREAKVQWKVDNALQSGNSQESVTEQDSKDSTYSLSSTLTLSKADYEKHKVYACEVTHQGLSSPVTKSFNRGEC
notes: Dual-variable-domain format; also called 双特异性抗体C4D2-BsAb
Kd: 3.88 nM

— CN104592390A (SHANGHAI ZHANGJIANG BIOTECHNOLOGY CO LTD; SHANGHAI HAISI …, dated 2015)
